These results are taken from US5731419.

For this test, the target named is glutathione reductase (Type III, Sigma).

Take “WCOR410 protein, expressed from pET22b and purified with the His*Bind buffer kit”: the remaining glutathione reductase activity after denaturation (percent of control) (% of control activity (-20° C., 1 µg/ml)) amounted to 42. The same measure, in the same setting: the same measure for “Wcs120 protein (50 kDa protein), expressed in E. coli from pET11a and purified”: 40.

On to “Bovine serum albumin (Pharmacia, DNase free 10 mg/ml) (from UniProt P02769)”, for which the remaining glutathione reductase activity after denaturation (percent of control) (scale: % of control activity) is 71.
